Laboratory results taken from PMC7617797, “The phosphorylated trimeric SOSS1 complex and RNA polymerase II trigger liquid-liquid phase separation at double-strand breaks”.

What was measured:
hSSB1 Y102A/Y115A = hSSB1 Y102A/Y115A (Homo sapiens, UniProt Q9BQ15 1-211, Y102A;Y115A); assay: EMSA; EMSA: 25 mM Tris-HCl pH 7.5, 1 mM DTT, 5 mM MgCl2, 100 mM NaCl, 20 min at 37 C; 10 nM substrate; protein 22-167 nM (RPA 5-40 nM); 7.5% native PAGE, 0.5x TBE, 4; conditions: protein: recombinant
hSSB1 Y102A = hSSB1 Y102A (Homo sapiens, UniProt Q9BQ15 1-211, Y102A); assay: as above; conditions: protein: recombinant
Chain of hSSB1 Y102A (Q9BQ15 whole entry Y102A): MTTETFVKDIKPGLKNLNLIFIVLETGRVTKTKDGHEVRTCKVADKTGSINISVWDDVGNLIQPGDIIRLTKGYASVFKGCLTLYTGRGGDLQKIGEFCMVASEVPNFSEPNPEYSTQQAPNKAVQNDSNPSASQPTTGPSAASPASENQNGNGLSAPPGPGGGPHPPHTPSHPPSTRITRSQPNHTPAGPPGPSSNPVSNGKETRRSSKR

hSSB1 Y115A = hSSB1 Y115A (Homo sapiens, UniProt Q9BQ15 1-211, Y115A); assay: as above; conditions: protein: recombinant
Chain of hSSB1 Y115A (Q9BQ15 whole entry Y115A): as the sequence (Q9BQ15 whole entry Y102A) above, with A102Y, Y115A counted along it

hSSB1;INTS3;c9orf80 [1] = target: T1, hSSB1;INTS3;c9orf80 (Homo sapiens;Homo sapiens?;Homo sapiens?, UniProt Q9BQ15;Q68E01;Q9NRY2 1-211;1-1043;1-104, ||); assay: competition EMSA; substrate pre-coated with RPA (10 or 30 nM); EMSA: 25 mM Tris-HCl pH 7.5, 1 mM DTT, 5 mM MgCl2, 100 mM NaCl, 20 min at 37 C; 10 nM substrate; protein 22-167 nM (RPA 5-40 nM); 7.5% native PAGE, 0.5x TBE, 4; conditions: protein: recombinant;recombinant;recombinant; tags: His6 (2BT);His6-TEV (438B);His6-TEV (438B); copies: 1;1;1; label: 5' Cy3 on strand 1; 21-nt RNA paired to strand 1 in a 21-nt bubble; 20-bp flanking duplexes
T1 sequence (Q9BQ15 whole entry, chain 1 of 3): as the sequence (Q9BQ15 whole entry Y102A) above, with A102Y counted along it
T1 sequence (Q68E01 whole entry, chain 2 of 3): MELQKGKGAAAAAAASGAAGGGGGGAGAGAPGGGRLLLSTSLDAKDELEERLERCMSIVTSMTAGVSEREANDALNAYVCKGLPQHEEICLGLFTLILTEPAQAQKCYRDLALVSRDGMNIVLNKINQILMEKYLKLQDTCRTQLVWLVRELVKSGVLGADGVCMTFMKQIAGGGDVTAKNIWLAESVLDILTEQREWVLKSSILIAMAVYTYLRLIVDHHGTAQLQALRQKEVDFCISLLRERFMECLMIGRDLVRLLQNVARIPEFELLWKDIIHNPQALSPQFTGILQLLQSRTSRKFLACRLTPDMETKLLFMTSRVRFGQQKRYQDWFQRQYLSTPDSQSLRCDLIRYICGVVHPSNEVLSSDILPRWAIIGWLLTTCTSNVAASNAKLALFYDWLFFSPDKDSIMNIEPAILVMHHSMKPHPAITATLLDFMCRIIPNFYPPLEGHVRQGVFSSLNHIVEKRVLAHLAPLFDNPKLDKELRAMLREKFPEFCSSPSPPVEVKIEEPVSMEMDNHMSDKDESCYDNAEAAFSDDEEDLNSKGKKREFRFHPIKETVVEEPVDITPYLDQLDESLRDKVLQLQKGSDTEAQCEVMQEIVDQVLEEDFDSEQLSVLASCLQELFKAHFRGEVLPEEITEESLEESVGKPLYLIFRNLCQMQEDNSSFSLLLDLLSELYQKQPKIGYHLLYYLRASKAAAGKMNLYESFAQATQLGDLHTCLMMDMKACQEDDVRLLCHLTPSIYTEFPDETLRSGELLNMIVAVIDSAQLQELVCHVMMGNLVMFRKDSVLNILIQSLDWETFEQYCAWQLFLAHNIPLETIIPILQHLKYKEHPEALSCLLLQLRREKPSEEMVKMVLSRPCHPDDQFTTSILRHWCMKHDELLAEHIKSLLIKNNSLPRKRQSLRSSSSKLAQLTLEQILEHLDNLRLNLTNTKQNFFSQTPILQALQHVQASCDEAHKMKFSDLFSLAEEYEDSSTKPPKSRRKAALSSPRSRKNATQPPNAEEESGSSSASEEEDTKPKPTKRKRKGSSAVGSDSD
T1 sequence (Q9NRY2 whole entry, chain 3 of 3): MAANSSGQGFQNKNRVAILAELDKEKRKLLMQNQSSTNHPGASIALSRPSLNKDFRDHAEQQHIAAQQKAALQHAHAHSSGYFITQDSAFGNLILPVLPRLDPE

hSSB1;INTS3;c9orf80 [2] = target: T1, hSSB1;INTS3;c9orf80; assay: EMSA; EMSA: 25 mM Tris-HCl pH 7.5, 1 mM DTT, 5 mM MgCl2, 100 mM NaCl, 20 min at 37 C; 10 nM substrate; protein 22-167 nM (RPA 5-40 nM); 7.5% native PAGE, 0.5x TBE, 4; conditions: protein: recombinant;recombinant;recombinant; tags: His6 (2BT);His6-TEV (438B);His6-TEV (438B); copies: 1;1;1; label: 5' Cy3; single strand
[3] = label: 5' Cy3 on strand 1, 21-nt RNA paired to strand 1 in a 21-nt bubble, 20-bp flanking duplexes

Chain of hSSB1 Y102A/Y115A (Q9BQ15 whole entry Y102A/Y115A): as the sequence (Q9BQ15 whole entry Y102A) above, with Y115A counted along it

B1: 61-mer ssDNA (ssDNA)
DNA: GACGCTGCCGAATTCTACCAGTGCCTTGCTAGGACATCTTTGCCCACCTGCAGGTTCACCC
- binding result (hSSB1 Y102A/Y115A; label: 5' Cy3, single strand): binds
- binding result (hSSB1 Y102A; label: 5' Cy3, single strand): binds
- binding result (hSSB1 Y115A; label: 5' Cy3, single strand): binds

B2: R-loop (mixed)
DNA 1: GACGCTGCCGAATTCTACCAGTGCCTTGCTAGGACATCTTTGCCCACCTGCAGGTTCACCC
DNA 2: GGGTGAACCTGCAGGTGGGCGGCTGCTCATCGTAGGTTAGTTGGTAGAATTCGGCAGCGTC
RNA: AAAGAUGUCCUAGCAAGGCAC
- binding result (hSSB1 Y102A/Y115A; [3]): binds
- binding result (hSSB1 Y102A; [3]): binds
- binding result (hSSB1 Y115A; [3]): binds
- binding result (hSSB1;INTS3;c9orf80 [1]): binds

Binder: GTGCCTTGCTAGGACATCTTT (ssDNA) [21-mer ssDNA (pRMS630)]
- binding result (hSSB1;INTS3;c9orf80 [2]): no binding
